Experimental data as given in publication PMC4623018, “Studies on the catalytic domains of multiple JmjC oxygenases using peptide substrates” (Epigenetics, 2014).
Ends that are not written are not given here. Me3 = trimethyl on the lysine side-chain amine

Biological target: T1, KDM4A catalytic domain (human, UniProt O75164 1-359)
T1 construct: The limits 1-359 are those of the KDM4A catalytic domain used in the activity assays; also called KDM4A (1–359); 4A(1–359); source: E. coli, purified as previously described
T1 sequence (looked up): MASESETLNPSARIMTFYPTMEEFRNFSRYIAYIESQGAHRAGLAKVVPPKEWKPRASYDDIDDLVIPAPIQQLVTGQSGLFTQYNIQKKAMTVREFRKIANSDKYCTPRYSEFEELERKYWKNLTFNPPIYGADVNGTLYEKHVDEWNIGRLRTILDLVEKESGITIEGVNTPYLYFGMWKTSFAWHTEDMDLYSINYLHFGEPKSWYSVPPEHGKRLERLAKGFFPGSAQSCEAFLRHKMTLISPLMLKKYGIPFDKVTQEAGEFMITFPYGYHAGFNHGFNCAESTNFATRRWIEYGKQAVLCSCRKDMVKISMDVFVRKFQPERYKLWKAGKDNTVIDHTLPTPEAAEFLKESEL
Assay: crystal structure; KDM4A catalytic domain complexed with H3K27me3 peptides (25 residue and 5 residue)
Settings: both partners purified

B1: 5 residue H3K27me3 peptide (peptide, UniProt P68431 26-30, looked up)
peptide: ARK(Me3)SA
notes: histone H3 fragment, residues 25-29; also called H3(25–29)K27me3
Question: Does B1 bind?
Answer: binds
